Laboratory results taken from US20180155451A1 (published 2018).

T1: FcγRIIa R (human, UniProt P12318 34-217)
T1 construct: extracellular domain; also called FcgRIIa R type; 2aR
T1 sequence (looked up): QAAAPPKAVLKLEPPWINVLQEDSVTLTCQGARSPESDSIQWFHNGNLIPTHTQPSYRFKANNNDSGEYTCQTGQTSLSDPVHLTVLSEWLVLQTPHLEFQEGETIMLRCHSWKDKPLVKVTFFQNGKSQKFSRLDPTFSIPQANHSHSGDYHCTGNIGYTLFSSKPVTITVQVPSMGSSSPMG

B1: GpH7-A5/GpH7-B3 variant G236_14T/GpL16-k0 (antibody, human IgG1, kappa)
heavy 1: not shown
heavy 2: not shown
light: DIVMTQSPLSLPVTPGEPASISCQASESLVHSNRNTYLHWYLQKPGQSPQLLIYKVSNRFSGVPDRFSGSGSGTDFTLKISRVEAEDVGVYYCSQNTHVPPTFGQGTKVEIERTVAAPSVFIFPPSDEQLKSGTASVVCLLNNFYPREAKVQWKVDNALQSGNSQESVTEQDSKDSTYSLSSTLTLSKADYEKHKVYACEVTHQGLSSPVTKSFNRGEC
notes: also called He Ab G236_14T
B2: GpH7-A5/GpH7-B3 variant K326_03V/GpL16-k0 (antibody, human IgG1, kappa)
heavy 1: not shown
heavy 2: not shown
light: B1 light
notes: also called He Ab K326_03V
B3: GpH7-A5/GpH7-B3 variant L328_09D/GpL16-k0 (antibody, human IgG1, kappa)
heavy 1: not shown
heavy 2: not shown
light: B1 light
notes: also called He Ab L328_09D
B4: GpH7-A5/GpH7-B3 variant K334_19Q/GpL16-k0 (antibody, human IgG1, kappa)
heavy 1: not shown
heavy 2: not shown
light: B1 light
notes: also called He Ab K334_19Q
B5: GpH7-A5/GpH7-B3 variant L234_09D/GpL16-k0 (antibody, human IgG1, kappa)
heavy 1: not shown
heavy 2: not shown
light: B1 light
notes: also called He Ab L234_09D
B6: GpH7-A5/GpH7-B3 variant I336_18N/GpL16-k0 (antibody, human IgG1, kappa)
heavy 1: not shown
heavy 2: not shown
light: B1 light
notes: also called He Ab I336_18N
B7: GpH7-A5/GpH7-B3 variant G237_15Y/GpL16-k0 (antibody, human IgG1, kappa)
heavy 1: not shown
heavy 2: not shown
light: B1 light
notes: also called He Ab G237_15Y
B8: GpH7-A5/GpH7-B3 variant K334_10E/GpL16-k0 (antibody, human IgG1, kappa)
heavy 1: not shown
heavy 2: not shown
light: B1 light
notes: also called He Ab K334_10E
B9: GpH7-A5/GpH7-B3 variant K334_02A/GpL16-k0 (antibody, human IgG1, kappa)
heavy 1: not shown
heavy 2: not shown
light: B1 light
notes: also called He Ab K334_02A
B10: GpH7-A5/GpH7-B3 variant L235_04F/GpL16-k0 (antibody, human IgG1, kappa)
heavy 1: not shown
heavy 2: not shown
light: B1 light
notes: also called He Ab L235_04F
B11: GpH7-A5/GpH7-B3 variant G237_09D/GpL16-k0 (antibody, human IgG1, kappa)
heavy 1: not shown
heavy 2: not shown
light: B1 light
notes: also called He Ab G237_09D
B12: GpH7-A5/GpH7-B3 variant K334_08L/GpL16-k0 (antibody, human IgG1, kappa)
heavy 1: not shown
heavy 2: not shown
light: B1 light
notes: also called He Ab K334_08L
B13: GpH7-A5/GpH7-B3 variant H268_03V/GpL16-k0 (antibody, human IgG1, kappa)
heavy 1: not shown
heavy 2: not shown
light: B1 light
notes: also called He Ab H268_03V
B14: GpH7-A5/GpH7-B3 variant N325_01G/GpL16-k0 (antibody, human IgG1, kappa)
heavy 1: not shown
heavy 2: not shown
light: B1 light
notes: also called He Ab N325_01G
B15: GpH7-A5/GpH7-B3 variant G237_02A/GpL16-k0 (antibody, human IgG1, kappa)
heavy 1: not shown
heavy 2: not shown
light: B1 light
notes: also called He Ab G237_02A
B16: GpH7-A5/GpH7-B3 variant G237_18N/GpL16-k0 (antibody, human IgG1, kappa)
heavy 1: not shown
heavy 2: not shown
light: B1 light
notes: also called He Ab G237_18N
B17: GpH7-A5/GpH7-B3 variant L328_02A/GpL16-k0 (antibody, human IgG1, kappa)
heavy 1: not shown
heavy 2: not shown
light: B1 light
notes: also called He Ab L328_02A
B18: GpH7-A5/GpH7-B3 variant K326_07I/GpL16-k0 (antibody, human IgG1, kappa)
heavy 1: not shown
heavy 2: not shown
light: B1 light
notes: also called He Ab K326_07I
B19: GpH7-A5/GpH7-B3 variant H268_20W/GpL16-k0 (antibody, human IgG1, kappa)
heavy 1: not shown
heavy 2: not shown
light: B1 light
notes: also called He Ab H268_20W
B20: GpH7-A5/GpH7-B3 variant L328_13S/GpL16-k0 (antibody, human IgG1, kappa)
heavy 1: not shown
heavy 2: not shown
light: B1 light
notes: also called He Ab L328_13S
B21: GpH7-A5/GpH7-B3 variant I332_14T/GpL16-k0 (antibody, human IgG1, kappa)
heavy 1: not shown
heavy 2: not shown
light: B1 light
notes: also called He Ab I332_14T
B22: GpH7-A5/GpH7-B3 variant G237_04F/GpL16-k0 (antibody, human IgG1, kappa)
heavy 1: not shown
heavy 2: not shown
light: B1 light
notes: also called He Ab G237_04F
B23: GpH7-A5/GpH7-B3 variant I332_06M/GpL16-k0 (antibody, human IgG1, kappa)
heavy 1: not shown
heavy 2: not shown
light: B1 light
notes: also called He Ab I332_06M
B24: GpH7-A5/GpH7-B3 variant L235_20W/GpL16-k0 (antibody, human IgG1, kappa)
heavy 1: not shown
heavy 2: not shown
light: B1 light
notes: also called He Ab L235_20W
B25: GpH7-A5/GpH7-B3 variant K334_20W/GpL16-k0 (antibody, human IgG1, kappa)
heavy 1: not shown
heavy 2: not shown
light: B1 light
notes: also called He Ab K334_20W
B26: GpH7-A5/GpH7-B3 variant H268_12R/GpL16-k0 (antibody, human IgG1, kappa)
heavy 1: not shown
heavy 2: not shown
light: B1 light
notes: also called He Ab H268_12R
B27: GpH7-A5/GpH7-B3 variant L234_10E/GpL16-k0 (antibody, human IgG1, kappa)
heavy 1: not shown
heavy 2: not shown
light: B1 light
notes: also called He Ab L234_10E
B28: GpH7-A5/GpH7-B3 variant H268_11K/GpL16-k0 (antibody, human IgG1, kappa)
heavy 1: not shown
heavy 2: not shown
light: B1 light
notes: also called He Ab H268_11K
B29: GpH7-A5/GpH7-B3 variant K326_18N/GpL16-k0 (antibody, human IgG1, kappa)
heavy 1: not shown
heavy 2: not shown
light: B1 light
notes: also called He Ab K326_18N
B30: GpH7-A5/GpH7-B3 variant G237_08L/GpL16-k0 (antibody, human IgG1, kappa)
heavy 1: not shown
heavy 2: not shown
light: B1 light
notes: also called He Ab G237_08L
B31: GpH7-A5/GpH7-B3 variant H268_15Y/GpL16-k0 (antibody, human IgG1, kappa)
heavy 1: not shown
heavy 2: not shown
light: B1 light
notes: also called He Ab H268_15Y
B32: GpH7-A5/GpH7-B3 variant G237_20W/GpL16-k0 (antibody, human IgG1, kappa)
heavy 1: not shown
heavy 2: not shown
light: B1 light
notes: also called He Ab G237_20W
B33: GpH7-A5/GpH7-B3 variant K334_04F/GpL16-k0 (antibody, human IgG1, kappa)
heavy 1: not shown
heavy 2: not shown
light: B1 light
notes: also called He Ab K334_04F
B34: GpH7-A5/GpH7-B3 variant G237_19Q/GpL16-k0 (antibody, human IgG1, kappa)
heavy 1: not shown
heavy 2: not shown
light: B1 light
notes: also called He Ab G237_19Q
B35: GpH7-A5/GpH7-B3 variant K326_20W/GpL16-k0 (antibody, human IgG1, kappa)
heavy 1: not shown
heavy 2: not shown
light: B1 light
notes: also called He Ab K326_20W
B36: GpH7-A5/GpH7-B3 variant L234_04F/GpL16-k0 (antibody, human IgG1, kappa)
heavy 1: not shown
heavy 2: not shown
light: B1 light
notes: also called He Ab L234_04F
B37: GpH7-A5/GpH7-B3 variant K326_08L/GpL16-k0 (antibody, human IgG1, kappa)
heavy 1: not shown
heavy 2: not shown
light: B1 light
notes: also called He Ab K326_08L
B38: GpH7-A5/GpH7-B3 variant L328_10E/GpL16-k0 (antibody, human IgG1, kappa)
heavy 1: not shown
heavy 2: not shown
light: B1 light
notes: also called He Ab L328_10E
B39: GpH7-A5/GpH7-B3 variant K334_05P/GpL16-k0 (antibody, human IgG1, kappa)
heavy 1: not shown
heavy 2: not shown
light: B1 light
notes: also called He Ab K334_05P
B40: GpH7-A5/GpH7-B3 variant I336_08L/GpL16-k0 (antibody, human IgG1, kappa)
heavy 1: not shown
heavy 2: not shown
light: B1 light
notes: also called He Ab I336_08L
B41: GpH7-A5/GpH7-B3 variant G237_06M/GpL16-k0 (antibody, human IgG1, kappa)
heavy 1: not shown
heavy 2: not shown
light: B1 light
notes: also called He Ab G237_06M
B42: GpH7-A5/GpH7-B3 variant K326_15Y/GpL16-k0 (antibody, human IgG1, kappa)
heavy 1: not shown
heavy 2: not shown
light: B1 light
notes: also called He Ab K326_15Y
B43: GpH7-A5/GpH7-B3 variant K334_12R/GpL16-k0 (antibody, human IgG1, kappa)
heavy 1: not shown
heavy 2: not shown
light: B1 light
notes: also called He Ab K334_12R
B44: GpH7-A5/GpH7-B3 variant H268_05P/GpL16-k0 (antibody, human IgG1, kappa)
heavy 1: not shown
heavy 2: not shown
light: B1 light
notes: also called He Ab H268_05P
B45: GpH7-A5/GpH7-B3 variant G237_10E/GpL16-k0 (antibody, human IgG1, kappa)
heavy 1: not shown
heavy 2: not shown
light: B1 light
notes: also called He Ab G237_10E
B46: GpH7-A5/GpH7-B3 variant G237_13S/GpL16-k0 (antibody, human IgG1, kappa)
heavy 1: not shown
heavy 2: not shown
light: B1 light
notes: also called He Ab G237_13S
B47: GpH7-A5/GpH7-B3 variant L328_14T/GpL16-k0 (antibody, human IgG1, kappa)
heavy 1: not shown
heavy 2: not shown
light: B1 light
notes: also called He Ab L328_14T
B48: GpH7-A5/GpH7-B3 variant L235_15Y/GpL16-k0 (antibody, human IgG1, kappa)
heavy 1: not shown
heavy 2: not shown
light: B1 light
notes: also called He Ab L235_15Y
B49: GpH7-A5/GpH7-B3 variant L234_20W/GpL16-k0 (antibody, human IgG1, kappa)
heavy 1: not shown
heavy 2: not shown
light: B1 light
notes: also called He Ab L234_20W
B50: GpH7-A5/GpH7-B3 variant K326_12R/GpL16-k0 (antibody, human IgG1, kappa)
heavy 1: not shown
heavy 2: not shown
light: B1 light
notes: also called He Ab K326_12R
B51: GpH7-A5/GpH7-B3 variant I336_06M/GpL16-k0 (antibody, human IgG1, kappa)
heavy 1: not shown
heavy 2: not shown
light: B1 light
notes: also called He Ab I336_06M
B52: GpH7-A5/GpH7-B3 variant K326_04F/GpL16-k0 (antibody, human IgG1, kappa)
heavy 1: not shown
heavy 2: not shown
light: B1 light
notes: also called He Ab K326_04F
B53: GpH7-A5/GpH7-B3 variant H268_01G/GpL16-k0 (antibody, human IgG1, kappa)
heavy 1: not shown
heavy 2: not shown
light: B1 light
notes: also called He Ab H268_01G
B54: GpH7-A5/GpH7-B3 variant K334_13S/GpL16-k0 (antibody, human IgG1, kappa)
heavy 1: not shown
heavy 2: not shown
light: B1 light
notes: also called He Ab K334_13S
B55: GpH7-A5/GpH7-B3 variant L235_09D/GpL16-k0 (antibody, human IgG1, kappa)
heavy 1: not shown
heavy 2: not shown
light: B1 light
notes: also called He Ab L235_09D

Biological target: T1, FcγRIIa R
Experiment: SPR Biacore; vs GpH7-A5/GpH7-B3/GpL16-k0 =100

Binder | He/Con_2aR
B1 | 103 % of control
B2 | 141 % of control
B3 | 119 % of control
B4 | 109 % of control
B5 | 122 % of control
B6 | 104 % of control
B7 | 129 % of control
B8 | 106 % of control
B9 | 105 % of control
B10 | 114 % of control
B11 | 156 % of control
B12 | 106 % of control
B13 | 109 % of control
B14 | 107 % of control
B15 | 126 % of control
B16 | 150 % of control
B17 | 117 % of control
B18 | 147 % of control
B19 | 113 % of control
B20 | 117 % of control
B21 | 105 % of control
B22 | 126 % of control
B23 | 109 % of control
B24 | 131 % of control
B25 | 105 % of control
B26 | 105 % of control
B27 | 112 % of control
B28 | 100 % of control

Binder | He/Con_2aR
B29 | 115 % of control
B30 | 133 % of control
B31 | 110 % of control
B32 | 138 % of control
B33 | 110 % of control
B34 | 121 % of control
B35 | 131 % of control
B36 | 104 % of control
B37 | 137 % of control
B38 | 105 % of control
B39 | 103 % of control
B40 | 110 % of control
B41 | 133 % of control
B42 | 136 % of control
B43 | 111 % of control
B44 | 106 % of control
B45 | 116 % of control
B46 | 121 % of control
B47 | 119 % of control
B48 | 129 % of control
B49 | 108 % of control
B50 | 103 % of control
B51 | 106 % of control
B52 | 135 % of control
B53 | 124 % of control
B54 | 109 % of control
B55 | 101 % of control
